# Residue numbers refer to the chain shown, from its start.
# B1: 15-N601-15 nucleosome -1 meCpG (nucleosome)
# DNA 1: ATGGAACACATTGCACAGGATGTATATATCTGACACGTGCCTGGAGACTAGGGAGTAATCCCCTTGGCGGTTAAAACGCGGGGGACAGCGCGTACGTGCGTTTAAGCGGTGCTAGAGCTGTCTACGACCAATTGAGCGGCCTCGGCACCGGGATTCTCCAGGGCGGCCGCGTATT
# DNA 2: AATACGCGGCCGCCCTGGAGAATCCCGGTGCCGAGGCCGCTCAATTGGTCGTAGACAGCTCTAGCACCGCTTAAACGCACGTACGCGCTGTCCCCCGCGTTTTAACCGCCAAGGGGATTACTCCCTAGTCTCCAGGCACGTGTCAGATATATACATCCTGTGCAATGTGTTCCAT
# modifications: meCpG at -1
# B2: 15-N601-15 nucleosome -61 meCpG (nucleosome)
# DNA 1: B1 DNA 1
# DNA 2: B1 DNA 2
# modifications: meCpG at -61 (GGCACCGGGATT)
# B3: 16-N603-30 nucleosome 91 meCpA (nucleosome)
# DNA 1: GAGCCACAAAATCACCGACGCTCACGGGTGCCCAGTTCGCGCGCCCACCTACCGTGTGAAGTCGTCACTCGGGCTTCTAAGTACGCTTAGCGCACGGTAGAGCGCAATCCAAGGCTAACCACCGTGCATCGATGTTGAAAGAGGCCCTCCGTCCTTATTACTTCAAGTCCCTGGGGTACCCGTTTCACTGCCA
# DNA 2: TGGCAGTGAAACGGGTACCCCAGGGACTTGAAGTAATAAGGACGGAGGGCCTCTTTCAACATCGATGCACGGTGGTTAGCCTTGGATTGCGCTCTACCGTGCGCTAAGCGTACTTAGAAGCCCGAGTGACGACTTCACACGGTAGGTGGGCGCGCGAACTGGGCACCCGTGAGCGTCGGTGATTTTGTGGCTC
# modifications: asymmetric meCpA at 91
# B4: 16-N603-30 nucleosome 81 meCpA (nucleosome)
# DNA 1: B3 DNA 1
# DNA 2: B3 DNA 2
# modifications: asymmetric meCpA at 81
# B5: N601 nucleosome core particle -61 meCpG (nucleosome)
# DNA 1: CAGGATGTATATATCTGACACGTGCCTGGAGACTAGGGAGTAATCCCCTTGGCGGTTAAAACGCGGGGGACAGCGCGTACGTGCGTTTAAGCGGTGCTAGAGCTGTCTACGACCAATTGAGCGGCCTCGGCACCGGGATTCTCCA
# DNA 2: TGGAGAATCCCGGTGCCGAGGCCGCTCAATTGGTCGTAGACAGCTCTAGCACCGCTTAAACGCACGTACGCGCTGTCCCCCGCGTTTTAACCGCCAAGGGGATTACTCCCTAGTCTCCAGGCACGTGTCAGATATATACATCCTG
# modifications: meCpG at -61
# B6: 16-N603-30 +91 CG nucleosome 91 meCpG (nucleosome)
# DNA 1: B3 DNA 1 with T12C, A14G, C15G
# DNA 2: B3 DNA 2 with G179C, T180C, A182G
# modifications: meCpG at 91
# B7: 16-N603-30 +81 CG nucleosome 81 meCpG (nucleosome)
# DNA 1: B3 DNA 1 with T22C, A24G, C25G
# DNA 2: B3 DNA 2 with G169C, T170C, A172G
# modifications: meCpG at 81
# B8: N601-15 nucleosome 81 meCpA (nucleosome)
# DNA 1: ATGGAACACATTGCACAGGATGTATATATCTGACACGTGCCTGGAGACTAGGGAGTAATCCCCTTGGCGGTTAAAACGCGGGGGACAGCGCGTACGTGCGTTTAAGCGGTGCTAGAGCTGTCTACGACCAATTGAGCGGCCTCGGCACCGGGATTCTCCA
# DNA 2: TGGAGAATCCCGGTGCCGAGGCCGCTCAATTGGTCGTAGACAGCTCTAGCACCGCTTAAACGCACGTACGCGCTGTCCCCCGCGTTTTAACCGCCAAGGGGATTACTCCCTAGTCTCCAGGCACGTGTCAGATATATACATCCTGTGCAATGTGTTCCAT
# modifications: asymmetric meCpA at 81
# B9: N601-15 nucleosome (single 15 bp linker) (nucleosome)
# DNA 1: B8 DNA 1
# DNA 2: B8 DNA 2
# B10: 16-N603-30 free DNA 91 meCpA (dsDNA)
# DNA 1: B3 DNA 1
# DNA 2: B3 DNA 2
# modifications: asymmetric meCpA at 91
# B11: 16-N603-30 +81 CG free DNA 81 meCpG (dsDNA)
# DNA 1: B3 DNA 1 with T22C, A24G, C25G
# DNA 2: B3 DNA 2 with G169C, T170C, A172G
# modifications: meCpG at 81
# B12: 16-N603-30 +91 CG free DNA 91 meCpG (dsDNA)
# DNA 1: B3 DNA 1 with T12C, A14G, C15G
# DNA 2: B3 DNA 2 with G179C, T180C, A182G
# modifications: meCpG at 91
# B13: 16-N603-30 free DNA unmethylated (dsDNA)
# DNA 1: B3 DNA 1
# DNA 2: B3 DNA 2
# B14: 16-N603-30 free DNA 81 meCpA (dsDNA)
# DNA 1: B3 DNA 1
# DNA 2: B3 DNA 2
# modifications: asymmetric meCpA at 81
# B15: 15-N601-15 free DNA unmethylated (dsDNA)
# DNA 1: B1 DNA 1
# DNA 2: B1 DNA 2
# B16: 15-N601-15 free DNA -1 meCpG (dsDNA)
# DNA 1: B1 DNA 1
# DNA 2: B1 DNA 2
# modifications: meCpG at -1
# B17: 15-N601-15 free DNA -61 meCpG (dsDNA)
# DNA 1: B1 DNA 1
# DNA 2: B1 DNA 2
# modifications: meCpG at -61
# Molecular target: MeCP2 MBD;histone octamer (Homo sapiens;, UniProt P51608;P0C0S8;P62807;P68431;P62805 77-167;2-130;2-126;2-136;2-103, |H2B T115C;H3.1 C96S;C110A)
# Experiment: EMSA; 20 mM HEPES pH 7.5, 75 mM NaCl, 125 mM KCl, 50 uM EDTA, 2.5 mM beta-mercaptoethanol, 5% glycerol, BSA, 1.58 uM 47 bp competitor DNA (nucleosome assays); absent w
# Conditions: not given
row,Binder,Kd [nM]
1,B1,812
2,B2,809
3,B3,85.7
4,B4,268

# Molecular target: MeCP2 full-length, e2 isoform;histone octamer (Homo sapiens;, UniProt P51608;P0C0S8;P62807;P68431;P62805 1-486;2-130;2-126;2-136;2-103, |H2B T115C;H3.1 C96S;C110A)
# Experiment: as above
# Conditions: not given
Binder,Kd [nM],binding result
B1,130,–
B2,137,–
B5,–,no binding
B3,57.1,–
B6,71.3,–
B7,65.5,–
B4,65.3,–
B8,357,–
B9,419,–

# Molecular target: MeCP2 AT-DIRmut;histone octamer (Homo sapiens;, UniProt P51608;P0C0S8;P62807;P68431;P62805 1-486;2-130;2-126;2-136;2-103, R188G;R190G;K254N;K256N;R268Q|H2B T115C;H3.1 C96S;C110A)
# Experiment: as above
# Conditions: not given
row,Binder,Kd [nM]
1,B1,71.3
2,B2,78.6
3,B3,25.3
4,B4,42.2

# Molecular target: HisMBP-MeCP2 162-309;histone octamer (Homo sapiens;, UniProt P51608;P0C0S8;P62807;P68431;P62805 162-309;2-130;2-126;2-136;2-103, |H2B T115C;H3.1 C96S;C110A)
# Experiment: as above
# Conditions: not given
row,Binder,Kd [nM]
1,B3,103

# Molecular target: MeCP2 R133G;histone octamer (Homo sapiens;, UniProt P51608;P0C0S8;P62807;P68431;P62805 1-486;2-130;2-126;2-136;2-103, R133G|H2B T115C;H3.1 C96S;C110A)
# Experiment: as above
# Conditions: not given
row,Binder,Kd [nM]
1,B1,522
2,B2,534
3,B3,162

# Molecular target: MeCP2 full-length, e2 isoform;histone H1.0;histone octamer (Homo sapiens;Homo sapiens;, UniProt P51608;P07305;P0C0S8;P62807;P68431;P62805 1-486;1-194;2-130;2-126;2-136;2-103, ||H2B T115C;H3.1 C96S;C110A)
# Experiment: EMSA; histone H1.0 pre-bound (chromatosome); 20 mM HEPES pH 7.5, 75 mM NaCl, 125 mM KCl, 50 uM EDTA, 2.5 mM beta-mercaptoethanol, 5% glycerol, BSA, 1.58 uM 47 bp competitor DNA (nucleosome assays); absent w
# Conditions: not given
row,Binder,binding result
1,B1,no binding
2,B2,no binding

# Molecular target: MeCP2 full-length, e2 isoform (Homo sapiens, UniProt P51608 1-486)
# Experiment: EMSA; 20 mM HEPES pH 7.5, 75 mM NaCl, 125 mM KCl, 50 uM EDTA, 2.5 mM beta-mercaptoethanol, 5% glycerol, BSA, 1.58 uM 47 bp competitor DNA (nucleosome assays; absent with free DNA), room temperature 30 min
# Conditions: protein: recombinant; tags: none; blunt
row,Binder,Kd [nM]
1,B10,27.8 ± 1.9
2,B11,23.8 ± 1.2
3,B12,24.6 ± 1.7

# Same assay, conditions: protein: recombinant; tags: none; label: 5' 6-FAM
row,Binder,Kd [nM]
1,B13,46.2 ± 2.8
2,B14,27.1 ± 1.8

# Same assay, conditions: protein: recombinant; tags: none; label: 5' 6-FAM; blunt
row,Binder,Kd [nM]
1,B15,75.9 ± 4.2
2,B16,45.3 ± 2
3,B17,50.5 ± 1.9
